Experimental data as given in PMC10484726, “Archaeal Hel308 suppresses recombination through a catalytic switch that controls DNA annealing”.

Target: T1, Mth-Hel308 wild type (Methanothermobacter thermautotrophicus, UniProt O26901 1-690)
T1 sequence: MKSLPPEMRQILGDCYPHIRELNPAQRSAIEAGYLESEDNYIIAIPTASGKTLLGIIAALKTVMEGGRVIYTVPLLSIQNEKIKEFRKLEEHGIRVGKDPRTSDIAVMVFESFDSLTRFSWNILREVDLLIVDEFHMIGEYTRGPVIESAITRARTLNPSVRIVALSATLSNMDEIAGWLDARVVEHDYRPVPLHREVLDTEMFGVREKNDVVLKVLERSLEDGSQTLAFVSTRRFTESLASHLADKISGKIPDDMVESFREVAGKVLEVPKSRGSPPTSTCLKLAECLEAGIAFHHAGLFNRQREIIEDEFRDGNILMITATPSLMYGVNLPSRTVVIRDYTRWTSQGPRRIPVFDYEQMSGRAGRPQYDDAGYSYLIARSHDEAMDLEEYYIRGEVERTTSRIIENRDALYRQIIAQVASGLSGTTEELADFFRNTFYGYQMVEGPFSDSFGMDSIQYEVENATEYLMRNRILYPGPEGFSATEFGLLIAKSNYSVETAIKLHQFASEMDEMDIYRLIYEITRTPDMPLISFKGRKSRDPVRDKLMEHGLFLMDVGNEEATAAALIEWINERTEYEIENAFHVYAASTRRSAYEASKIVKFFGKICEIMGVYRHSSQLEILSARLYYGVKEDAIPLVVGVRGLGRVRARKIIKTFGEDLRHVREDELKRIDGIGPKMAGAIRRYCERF
Test: EMSA; 5 mM EDTA; 25 nM DNA; EMSA: 20 mM Tris-HCl pH 7.5, 100 ug/ml BSA, 7% glycerol, 25 mM DTT, 5 mM EDTA, 25 nM Cy5-DNA; 5% TBE gel; no added salt stated; 37 C 10 min stated for duplex DNA reactions
Settings: protein: recombinant; tags: N-terminal His6; label: Cy5 (end label); fork

B1: forked DNA substrate (dsDNA)
DNA 1: GTCGGATCCTCTAGACAGCTCCATGATCACTGGCACTGGTAGAATTCGGC
DNA 2: CAACGTCATAGACGATTACATTGCTACATGGAGCTGTCTAGAGGATCCGA
B1 showed a Kd of 68.2 nM.
